B1: Protein virB8 (Agrobacterium tumefaciens (strain C58 / ATCC 33970)), P17798 (parent)
chain: MKGSEYALLVARETLAEHYKEVEAFQTARAKSARRLSKVIAAVATIAVLGNVAQAFTIATMVPLIRLVPVYLWIRPDGTVDSEVSVSRLPATQEEAVVNASLWEYVRLRESYDADTAQYAYDLVSNFSAPMVRQNYQQFFNYPNPTSPQVILGKHGRLEVEHIASNDVTPGVQQIRYKRTLIVDGKMPMASTWTATVRYEKVTSLPGRLRLTNPGGLVVTSYQTSEDTVSNAGHSEP
partner: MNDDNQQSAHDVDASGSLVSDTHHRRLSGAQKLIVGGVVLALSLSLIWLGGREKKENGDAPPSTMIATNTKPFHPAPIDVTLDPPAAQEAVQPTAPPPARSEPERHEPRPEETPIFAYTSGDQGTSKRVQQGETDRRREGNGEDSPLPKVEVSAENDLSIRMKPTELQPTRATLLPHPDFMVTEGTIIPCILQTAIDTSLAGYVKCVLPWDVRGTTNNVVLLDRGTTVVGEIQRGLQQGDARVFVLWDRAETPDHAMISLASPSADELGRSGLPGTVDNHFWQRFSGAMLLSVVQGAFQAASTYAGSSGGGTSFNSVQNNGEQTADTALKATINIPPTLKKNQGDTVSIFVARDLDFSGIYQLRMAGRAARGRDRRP

Variants of: B1
Conditions: with virba_agrfc virB10, P17800

Row | Variant | effect of a mutation on the interaction
1 | A55W | increasing interaction

Reference: IntAct's records for PubMed 21763312
